Among the data in PMC10095097 are stoichiometry N values, retold here.

The assay concerns the target NTR 2.0 (engineered nitroreductase; Vibrio vulnificus NfsB F70A/F108Y) (Vibrio vulnificus (CMCP6)). The assay can be described thus: crystal structure; hanging-drop vapour diffusion at 291 K; protein 10 mg/mL in 40 mM Tris-HCl pH 7.0, 200 mM NaCl; precipitant 0.1 M sodium acetate trihydrate pH 4.5, 32% (v/v) PEG 300; two molecules in the asymmetric unit; FMN and acetate bound.

The substance “NTR 2.0 (engineered nitroreductase; Vibrio vulnificus NfsB F70A/F108Y) (enzyme)” had a stoichiometry N of 2.

The stoichiometry N is the number of molecules, sites or subunits per partner or assembly.
